In article PMC8113471, “Tanc2-mediated mTOR inhibition balances mTORC1/2 signaling in the developing mouse brain and human neurons” (Nature Communications, 2021):

Target: mTOR recombinant protein (Origene #TP320457) (UniProt P42345 1-2549)
Assay: pull-down; GST-Tanc2 proteins (full-length, N, C) immobilised on glutathione agarose beads, incubated with mTOR recombinant protein (0.5 µg) or Deptor protein in RIPA buffer for 2 h at 4 °C; washed three times; Coomassie staining or immunoblot
Details: both partners purified

Binder | binding result
GST-Tanc2-C (aa 1359-1990) (domain or fragment, Tanc2, human, aa 1359-1990, in pGEX-6P-1; also called C-terminal region of purified Tanc2; pGST-Tanc2-C; source: E. coli BL-21 (DE3), purified on glutathione sepharose 4B beads) REIQRLLLRVEEECRQMQQPQQPPPPPQPQQQLPEEAEPEPQHEDIYSVQDIFEEEYLEQDVENVSIGLQTEARPSQGLPVIQSPPSSPPHRDSAYISSSPLGSHQVFDFRSSSSVGSPTRQTYQSTSPALSPTHQNSHYRPSPPHTSPAHQGGSYRFSPPPVGGQGKEYPSPPPSPLRRGPQYRASPPAESMSVYRSQSGSPVRYQQETSVSQLPGRPKSPLSKMAQRPYQMPQLPVAVPQQGLRLQPAKAQIVRSNQPSPAVHSSTVIPTGAYGQVAHSMASKYQSSQGDIGVSQSRLVYQGSIGGIVGDGRPVQHVQASLSAGAICQHGGLTKEDLPQRPSSAYRGGVRYSQTPQIGRSQSASYYPVCHSKLDLERSSSQLGSPDVSHLIRRPISVNPNEIKPHPPTPRPLLHSQSVGLRFSPSSNSISSTSNLTPTFRPSSSIQQMEIPLKPAYERSCDELSPVSPTQGGYPSEPTRSRTTPFMGIIDKTARTQQYPHLHQQNRTWAVSSVDTVLSPTSPGNLPQPESFSPPSSISNIAFYNKTNNAQNGHLLEDDYYSPHGMLANGSRGDLLERVSQASSYPDVKVARTLPVAQAYQDNLYRQLSRDSRQGQTSPIKPKRPFVESNV | binds
GST-Tanc2-N (aa 1-1358) (domain or fragment, Tanc2, human, aa 1-1358, in pGEX-6P-1; also called N-terminal region of purified Tanc2; pGST-Tanc2-N; source: E. coli BL-21 (DE3), purified on glutathione sepharose 4B beads) not shown | binds
GST-Tanc2 (full-length) (natural protein, Tanc2, human, aa 1-1990, subcloned from p3XFlag-Tanc2 (aa 1-1990) into pGEX-6P-1; Kept on the glutathione beads as bait; also called purified Tanc2 protein; pGST-Tanc2 (aa 1-1990); source: E. coli BL-21 (DE3), purified on glutathione sepharose 4B beads) not shown | binds
